Results: the Immune Epitope Database (IEDB)
pKd: −log10 of the molar value.

Assays:
Details in all cases: source organism: Lyssavirus rabies
HLA-B*14:02 = experiment: IEDB peptide-MHC binding, purified MHC/competitive/fluorescence; filed as Kd, often an IC50 or EC50 that approximates it; ≥ and ≤ were set here for values at or beyond the usual limits of such assays
HLA-B*53:01 = experiment: as above
HLA-B*44:02 = experiment: as above
HLA-B*07:02 = experiment: as above
HLA-A*26:01 = experiment: IEDB peptide-MHC binding, purified MHC/direct/fluorescence; filed as Kd, often an IC50 or EC50 that approximates it; ≥ and ≤ were set here for values at or beyond the usual limits of such assays
HLA-B*27:03 = experiment: as above
HLA-C*03:03 = experiment: as above
HLA-A*02:03 = experiment: as above
HLA-A*02:19 = experiment: as above
HLA-B*39:01 = experiment: as above
HLA-A*24:03 = experiment: as above
HLA-A*69:01 = experiment: as above
HLA-A*02:12 = experiment: as above
HLA-B*15:01 = experiment: as above
HLA-A*29:02 = experiment: as above
HLA-B*46:01 = experiment: as above
HLA-B*18:01 = experiment: as above
HLA-B*57:01 = experiment: as above
HLA-A*03:01 = experiment: as above
HLA-B*51:01 = experiment: as above
HLA-B*15:17 = experiment: as above
HLA-A*23:01 = experiment: as above
HLA-A*02:11 = experiment: as above
HLA-A*02:06 = experiment: as above
HLA-A*02:01 = experiment: as above

YLDNVGVHI
pKd (HLA-B*14:02): ≤ 5.30
pKd (HLA-B*53:01): ≤ 5.30
pKd (HLA-B*44:02): ≤ 5.30
pKd (HLA-B*07:02): ≤ 5.30
pKd (HLA-A*26:01): ≤ 4.70
pKd (HLA-B*27:03): ≤ 4.70
pKd (HLA-C*03:03): ≤ 4.70
pKd (HLA-A*02:03): ≤ 4.70
pKd (HLA-A*02:19): ≤ 4.70
pKd (HLA-B*39:01): ≤ 4.70
pKd (HLA-A*24:03): ≤ 4.70
pKd (HLA-A*69:01): ≤ 4.70
pKd (HLA-A*02:12): 8.15
pKd (HLA-B*15:01): ≤ 4.70
pKd (HLA-A*29:02): ≤ 4.70
pKd (HLA-B*46:01): ≤ 4.70
pKd (HLA-B*18:01): ≤ 4.70
pKd (HLA-B*57:01): ≤ 4.70
pKd (HLA-A*03:01): ≤ 4.70
pKd (HLA-B*51:01): ≤ 4.70
pKd (HLA-B*15:17): ≤ 4.70
pKd (HLA-A*23:01): ≤ 4.70
pKd (HLA-A*02:11): ≤ 4.70
pKd (HLA-A*02:06): 7.44
pKd (HLA-A*02:01): ≤ 4.70
